Reference: paper PMC4441793

Key:
[1] = target: HIV-1 reverse transcriptase p51 subunit (residues 1-440) (human immunodeficiency virus type 1 (HIV-1)); assay: SEC-MALS
[2] = target: HIV-1 reverse transcriptase p66 subunit (immature RT precursor) (human immunodeficiency virus type 1 (HIV-1)); assay: SEC-MALS

| Substance | percent dimer in the NMR sample [1] [%] | stoichiometry N [1] | stoichiometry N [2] |
| --- | --- | --- | --- |
| HIV-1 reverse transcriptase p51 subunit (residues 1-440) (domain or fragment) | < 60 | 2 |  |
| HIV-1 reverse transcriptase p66 subunit (immature RT precursor) (enzyme) |  |  | 2 |
